Data set [1] addresses mouse SR-A6 expressed in L-929 cells (mouse) (UniProt Q60754). The data set can be described thus: binding of fluorophore-labelled virions to cells, confocal microscopy; Alexa-Fluor488-labelled HAdV-C5 bound at 4°C to L-929 cells transfected with mouse SR-A6-IRES-Tomato; Tomato-positive against Tomato-negative cells.
Data set [2] concerns the molecule itself. Put plainly: non-reducing SDS-PAGE; purified soluble mSR-A6; monomers and trimers.

In the case of “human adenovirus type C5 (HAdV-C5) virion (complex)”, the fold, mean cell-associated virus number in Tomato-positive over Tomato-negative cells in data set [1] came out at 7 fold.

B1: soluble mouse SR-A6 (entire extracellular part) (domain or fragment)
chain: QVLNLQEQLQMLEMCCGNGSLAIEDKPFFSLQWAPKTHLVPRAQGLQALQAQLSWVHTSQEQLRQQFNNLTQNPELFQIKGERGSPGPKGAPGAPGIPGLPGPAAEKGEKGAAGRDGTPGVQGPQGPPGSKGEAGLQGLTGAPGKQGATGAPGPRGEKGSKGDIGLTGPKGEHGTKGDKGDLGLPGNKGDMGMKGDTGPMGSPGAQGGKGDAGKPGLPGLAGSPGVKGDQGKPGVQGVPGPQGAPGLSGAKGEPGRTGLPGPAGPPGIAGNPGIAGVKGSKGDTGIQGQKGTKGESGVPGLVGRKGDTGSPGLAGPKGEPGRVGQKGDPGMKGSSGQQGQKGEKGQKGESFQRVRIMGGTNRGRAEVYYNNEWGTICDDDWDNNDATVFCRMLGYSRGRALSSYGGGSGNIWLDNVNCRGTENSLWDCSKNSWGNHNCVHNEDAGVECS
notes: SR-A6 (MARCO), mouse, the entire extracellular part; Largely monomeric with a small amount of trimers (15-20%) in non-reducing SDS-PAGE; also called mSR-A6 soluble; soluble SR-A6
By stoichiometry N is commonly meant a count of units in the complex or per binding partner. With B1, the “stoichiometry N” value in data set [2] came out at 3.
